B1: bH1 Fab variant Y^H33-M^H98-M^H99-R^L30b (Fab, V domains shown)
VH: not shown
VL: DIQMTQSPSSLSASVGDRVTITCRASQDIPRRISGYVAWYQQKPGKAPKLLIYWGSYLYSGVPSRFSGSGSGTDFTLTISSLQPEDFATYYCQQHYTTPPTFGQGTKVEIK
B2: bH1 Fab variant W^H33-M^H98-M^H99-R^L30b (Fab, V domains shown)
VH: EVQLVESGGGLVQPGGSLRLSCAASGFNIKDTWIHWVRQAPGKGLEWVARIYPTNGYTRYADSVKGRFTISADTSKNTAYLQMNSLRAEDTAVYYCSRWGGMMFYAMDYWGQGTLVTVSS
VL: DIQMTQSPSSLSASVGDRVTITCRASQDIPRRISGYVAWYQQKPGKAPKLLIYWGSYLYSGVPSRFSGSGSGTDFTLTISSLQPEDFATYYCQQHYTTPPTFGQGTKVEIK
B3: bH1 Fab variant W^H33-W^H98-M^H99-R^L30b (Fab, V domains shown)
VH: EVQLVESGGGLVQPGGSLRLSCAASGFNIKDTWIHWVRQAPGKGLEWVARIYPTNGYTRYADSVKGRFTISADTSKNTAYLQMNSLRAEDTAVYYCSRWGGWMFYAMDYWGQGTLVTVSS
VL: DIQMTQSPSSLSASVGDRVTITCRASQDIPRRISGYVAWYQQKPGKAPKLLIYWGSYLYSGVPSRFSGSGSGTDFTLTISSLQPEDFATYYCQQHYTTPPTFGQGTKVEIK
B4: bH1 Fab variant W^H33-W^H98-D^H99-R^L30b (Fab, V domains shown)
VH: EVQLVESGGGLVQPGGSLRLSCAASGFNIKDTWIHWVRQAPGKGLEWVARIYPTNGYTRYADSVKGRFTISADTSKNTAYLQMNSLRAEDTAVYYCSRWGGWDFYAMDYWGQGTLVTVSS
VL: DIQMTQSPSSLSASVGDRVTITCRASQDIPRRISGYVAWYQQKPGKAPKLLIYWGSYLYSGVPSRFSGSGSGTDFTLTISSLQPEDFATYYCQQHYTTPPTFGQGTKVEIK
B5: bH1 Fab variant W^H33-F^H98-D^H99-R^L30b (Fab, V domains shown)
VH: EVQLVESGGGLVQPGGSLRLSCAASGFNIKDTWIHWVRQAPGKGLEWVARIYPTNGYTRYADSVKGRFTISADTSKNTAYLQMNSLRAEDTAVYYCSRWGGFDFYAMDYWGQGTLVTVSS
VL: DIQMTQSPSSLSASVGDRVTITCRASQDIPRRISGYVAWYQQKPGKAPKLLIYWGSYLYSGVPSRFSGSGSGTDFTLTISSLQPEDFATYYCQQHYTTPPTFGQGTKVEIK
B6: bH1 Fab variant W^H33-F^H98-G^H99-R^L30b (Fab, V domains shown)
VH: not shown
VL: DIQMTQSPSSLSASVGDRVTITCRASQDIPRRISGYVAWYQQKPGKAPKLLIYWGSYLYSGVPSRFSGSGSGTDFTLTISSLQPEDFATYYCQQHYTTPPTFGQGTKVEIK
B7: bH1 Fab variant Y^H33-W^H98-R^H99-R^L30b (Fab, V domains shown)
VH: not shown
VL: DIQMTQSPSSLSASVGDRVTITCRASQDIPRRISGYVAWYQQKPGKAPKLLIYWGSYLYSGVPSRFSGSGSGTDFTLTISSLQPEDFATYYCQQHYTTPPTFGQGTKVEIK
B8: bH1 Fab variant W^H33-M^H98-D^H99-R^L30b (Fab, V domains shown)
VH: EVQLVESGGGLVQPGGSLRLSCAASGFNIKDTWIHWVRQAPGKGLEWVARIYPTNGYTRYADSVKGRFTISADTSKNTAYLQMNSLRAEDTAVYYCSRWGGMDFYAMDYWGQGTLVTVSS
VL: DIQMTQSPSSLSASVGDRVTITCRASQDIPRRISGYVAWYQQKPGKAPKLLIYWGSYLYSGVPSRFSGSGSGTDFTLTISSLQPEDFATYYCQQHYTTPPTFGQGTKVEIK
B9: bH1 Fab variant Y^H33-W^H98-D^H99-R^L30b (Fab, V domains shown)
VH: not shown
VL: DIQMTQSPSSLSASVGDRVTITCRASQDIPRRISGYVAWYQQKPGKAPKLLIYWGSYLYSGVPSRFSGSGSGTDFTLTISSLQPEDFATYYCQQHYTTPPTFGQGTKVEIK
B10: bH1 Fab variant W^H33-M^H98-G^H99-R^L30b (Fab, V domains shown)
VH: not shown
VL: DIQMTQSPSSLSASVGDRVTITCRASQDIPRRISGYVAWYQQKPGKAPKLLIYWGSYLYSGVPSRFSGSGSGTDFTLTISSLQPEDFATYYCQQHYTTPPTFGQGTKVEIK
B11: bH1 Fab variant Y^H33-M^H98-D^H99-R^L30b (Fab, V domains shown)
VH: not shown
VL: DIQMTQSPSSLSASVGDRVTITCRASQDIPRRISGYVAWYQQKPGKAPKLLIYWGSYLYSGVPSRFSGSGSGTDFTLTISSLQPEDFATYYCQQHYTTPPTFGQGTKVEIK

Molecular target: vascular endothelial growth factor (VEGF)-A, isoform 165 (Homo sapiens, UniProt P15692-4)
Experiment: SPR

First: B1
Second: B2
The “ΔΔG_bind against the parental Fab” value of the first is higher: -1.71 kcal/mol for the first, -2.27 kcal/mol for the second.

Compared with B3, B4 is lower in “ΔΔG_bind against the parental Fab” value: -2.07 kcal/mol for the first, -2.57 kcal/mol for the second.

First: B5
Second: B6
The “ΔΔG_bind against the parental Fab” value of the first is lower: -2.04 kcal/mol for the first, -1.09 kcal/mol for the second.

First: B7
Second: B8
The “ΔΔG_bind against the parental Fab” value of the first is higher: -0.97 kcal/mol for the first, -1.89 kcal/mol for the second.

Going from B9 to B10, the “ΔΔG_bind against the parental Fab” value rises from -1.88 kcal/mol to -1.51 kcal/mol.

With B11 the “ΔΔG_bind against the parental Fab” value was -1.58 kcal/mol.

— paper PMC6748613 (mAbs, 2019)
